Experimental data taken from patent publication US20140087995A1 (published 2014).
Numbered stars: 1 amine (or outer) side, 2 acyl side, 3 side chain; on linkers, the order of the positions; unused ones are H or OH. Bridge positions count the residues as written; N and C are the ends. Side chains are listed from the residue outwards. Ends that are not written are not given here. * marks the point of attachment. C20 diacid = O=C(O)CCCCCCCCCCCCCCCCCCC(=O)*; γGlu = O=C(O)[C@H](CCC(=O)[*:2])N[*:1]; AEEA = NCCOCCOCC(=O)O

T1: human amylin receptor (amylin 3(a) receptor: human calcitonin receptor coexpressed with RAMP-3) (human, UniProt P30988 25-474; O60896 24-148)
T1 sequence (looked up) 1: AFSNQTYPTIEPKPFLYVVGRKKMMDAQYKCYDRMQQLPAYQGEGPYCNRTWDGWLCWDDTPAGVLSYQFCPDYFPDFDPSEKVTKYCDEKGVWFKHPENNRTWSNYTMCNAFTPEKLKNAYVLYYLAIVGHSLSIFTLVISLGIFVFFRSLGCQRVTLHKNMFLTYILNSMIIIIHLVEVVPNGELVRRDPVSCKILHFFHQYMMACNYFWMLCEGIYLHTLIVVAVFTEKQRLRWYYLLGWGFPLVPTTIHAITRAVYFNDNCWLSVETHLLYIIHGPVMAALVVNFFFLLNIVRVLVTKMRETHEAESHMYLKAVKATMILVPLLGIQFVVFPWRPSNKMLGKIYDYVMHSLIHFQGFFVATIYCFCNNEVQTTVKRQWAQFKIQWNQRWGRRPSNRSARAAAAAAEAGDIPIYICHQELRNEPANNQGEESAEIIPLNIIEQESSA
T1 sequence (looked up) 2: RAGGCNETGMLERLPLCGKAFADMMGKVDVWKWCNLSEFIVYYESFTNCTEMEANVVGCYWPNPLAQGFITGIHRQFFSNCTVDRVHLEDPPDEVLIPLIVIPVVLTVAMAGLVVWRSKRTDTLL

T2: human calcitonin receptor (human, UniProt P30988 25-474)
T2 sequence (looked up): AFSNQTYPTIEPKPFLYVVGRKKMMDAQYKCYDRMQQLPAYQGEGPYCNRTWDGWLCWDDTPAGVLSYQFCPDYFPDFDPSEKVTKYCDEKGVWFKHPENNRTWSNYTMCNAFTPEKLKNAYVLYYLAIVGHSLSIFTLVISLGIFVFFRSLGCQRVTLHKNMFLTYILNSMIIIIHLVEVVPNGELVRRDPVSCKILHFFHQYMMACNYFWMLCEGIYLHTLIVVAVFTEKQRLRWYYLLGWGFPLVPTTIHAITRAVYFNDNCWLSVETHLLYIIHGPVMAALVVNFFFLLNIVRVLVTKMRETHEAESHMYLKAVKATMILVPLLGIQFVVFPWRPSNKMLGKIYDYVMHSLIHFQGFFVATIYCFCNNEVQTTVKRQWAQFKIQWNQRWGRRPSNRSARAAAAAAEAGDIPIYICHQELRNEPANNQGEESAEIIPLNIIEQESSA

T3: rat amylin receptor (rat calcitonin receptor + rat RAMP 3) (rat, UniProt P32214 25-516; Q9JJ73 23-147)
T3 construct: whole, on cells; Cell membranes of transiently transfected BHK tk'ts 13 cells (Assay VI); also called rAmylin-R; rat amylin 3(a) receptor
T3 sequence (looked up) 1: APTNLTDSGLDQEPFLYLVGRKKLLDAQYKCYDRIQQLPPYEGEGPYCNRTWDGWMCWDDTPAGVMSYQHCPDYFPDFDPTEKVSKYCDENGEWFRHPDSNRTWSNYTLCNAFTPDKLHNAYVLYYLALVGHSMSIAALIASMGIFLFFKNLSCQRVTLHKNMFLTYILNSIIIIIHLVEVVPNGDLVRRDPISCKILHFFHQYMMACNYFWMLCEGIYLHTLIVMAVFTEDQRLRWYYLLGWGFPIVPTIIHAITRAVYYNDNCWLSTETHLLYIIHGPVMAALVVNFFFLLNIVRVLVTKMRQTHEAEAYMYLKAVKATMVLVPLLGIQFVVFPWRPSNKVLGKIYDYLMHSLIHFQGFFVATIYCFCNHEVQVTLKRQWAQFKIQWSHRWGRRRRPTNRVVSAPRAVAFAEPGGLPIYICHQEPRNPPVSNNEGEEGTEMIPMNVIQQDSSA
T3 sequence (looked up) 2: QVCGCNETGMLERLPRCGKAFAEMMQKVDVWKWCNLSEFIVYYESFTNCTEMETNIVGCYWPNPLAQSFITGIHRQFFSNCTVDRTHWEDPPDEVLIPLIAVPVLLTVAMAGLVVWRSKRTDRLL

T4: rat calcitonin receptor (rat, UniProt P32214 25-516)
T4 construct: whole, on cells; Cell membranes of transiently transfected BHK tk'ts 13 cells (Assay VIII); also called rCTR; rCT
T4 sequence (looked up): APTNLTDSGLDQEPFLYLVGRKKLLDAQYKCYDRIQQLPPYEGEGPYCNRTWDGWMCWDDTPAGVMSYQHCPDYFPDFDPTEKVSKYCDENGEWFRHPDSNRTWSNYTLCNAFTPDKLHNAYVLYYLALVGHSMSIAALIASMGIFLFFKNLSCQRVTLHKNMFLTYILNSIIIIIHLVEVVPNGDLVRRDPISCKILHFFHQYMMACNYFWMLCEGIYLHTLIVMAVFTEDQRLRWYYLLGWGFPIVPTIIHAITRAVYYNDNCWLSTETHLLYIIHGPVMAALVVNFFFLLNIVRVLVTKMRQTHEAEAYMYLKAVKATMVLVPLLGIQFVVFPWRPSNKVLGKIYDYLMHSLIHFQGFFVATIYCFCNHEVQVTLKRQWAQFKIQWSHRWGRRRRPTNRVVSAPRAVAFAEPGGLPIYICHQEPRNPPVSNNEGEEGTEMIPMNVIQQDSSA


Key:
[1] = molecular target: T1, human amylin receptor (amylin 3(a) …); assay: cell-based or functional assay
[2] = molecular target: T2, human calcitonin receptor; assay: cell-based or functional assay
[3] = molecular target: T3, rat amylin receptor (rat calcitonin …); assay: SPA competition vs 125I-rat amylin, membranes with rat CTR + rat RAMP3 (Assay VI)
[4] = molecular target: T4, rat calcitonin receptor; assay: SPA competition vs 125I-calcitonin, membranes with rat CTR (Assay VIII)

| Binder | hAmylin-R funct. EC50 (pM) [1] | hCTR funct. EC50 (pM) [2] | Ratio hCT/hAmylin funct. [2] | IC50 [3] | IC50 [4] |
| --- | --- | --- | --- | --- | --- |
| K([AEEA-γGlu-C20 diacid])CNTATCATQRLANFLRHSSPNFGAIPSSTNVGHNTY-NH2 (disulfide 2-7; N-terminus assumed; SMILES CC[C@H](C)[C@H](NC(=O)[C@H](C)NC(=O)CNC(=O)[C@H](Cc1ccccc1)NC(=O)[C@H](CC(N)=O)NC(=O)[C@@H]1CCCN1C(=O)[C@H](CO)NC(=O)[C@H](CO)NC(=O)[C@H](Cc1c[nH]cn1)NC(=O)[C@H](CCCNC(=N)N)NC(=O)[C@H](CC(C)C)NC(=O)[C@H](Cc1ccccc1)NC(=O)[C@H](CC(N)=O)NC(=O)[C@H](C)NC(=O)[C@H](CC(C)C)NC(=O)[C@H](CCCNC(=N)N)NC(=O)[C@H](CCC(N)=O)NC(=O)[C@@H](NC(=O)[C@H](C)NC(=O)[C@@H]1CSSC[C@H](NC(=O)[C@@H](N)CCCCNC(=O)COCCOCCNC(=O)CC[C@H](NC(=O)CCCCCCCCCCCCCCCCCCC(=O)O)C(=O)O)C(=O)N[C@@H](CC(N)=O)C(=O)N[C@@H]([C@@H](C)O)C(=O)N[C@@H](C)C(=O)N[C@@H]([C@@H](C)O)C(=O)N1)[C@@H](C)O)C(=O)N1CCC[C@H]1C(=O)N[C@@H](CO)C(=O)N[C@@H](CO)C(=O)N[C@H](C(=O)N[C@@H](CC(N)=O)C(=O)N[C@H](C(=O)NCC(=O)N[C@@H](Cc1c[nH]cn1)C(=O)N[C@@H](CC(N)=O)C(=O)N[C@H](C(=O)N[C@@H](Cc1ccc(O)cc1)C(N)=O)[C@@H](C)O)C(C)C)[C@@H](C)O, also called compound 76) | 297 pM | 7370 pM |  |  |  |
| K([AEEA-AEEA-γGlu-C20 diacid])CNTATCATQRLANFLRHSSPNFGAIPSSTNVGRNTY-NH2 (disulfide 2-7; N-terminus assumed; SMILES CC[C@H](C)[C@H](NC(=O)[C@H](C)NC(=O)CNC(=O)[C@H](Cc1ccccc1)NC(=O)[C@H](CC(N)=O)NC(=O)[C@@H]1CCCN1C(=O)[C@H](CO)NC(=O)[C@H](CO)NC(=O)[C@H](Cc1c[nH]cn1)NC(=O)[C@H](CCCNC(=N)N)NC(=O)[C@H](CC(C)C)NC(=O)[C@H](Cc1ccccc1)NC(=O)[C@H](CC(N)=O)NC(=O)[C@H](C)NC(=O)[C@H](CC(C)C)NC(=O)[C@H](CCCNC(=N)N)NC(=O)[C@H](CCC(N)=O)NC(=O)[C@@H](NC(=O)[C@H](C)NC(=O)[C@@H]1CSSC[C@H](NC(=O)[C@@H](N)CCCCNC(=O)COCCOCCNC(=O)COCCOCCNC(=O)CC[C@H](NC(=O)CCCCCCCCCCCCCCCCCCC(=O)O)C(=O)O)C(=O)N[C@@H](CC(N)=O)C(=O)N[C@@H]([C@@H](C)O)C(=O)N[C@@H](C)C(=O)N[C@@H]([C@@H](C)O)C(=O)N1)[C@@H](C)O)C(=O)N1CCC[C@H]1C(=O)N[C@@H](CO)C(=O)N[C@@H](CO)C(=O)N[C@H](C(=O)N[C@@H](CC(N)=O)C(=O)N[C@H](C(=O)NCC(=O)N[C@@H](CCCNC(=N)N)C(=O)N[C@@H](CC(N)=O)C(=O)N[C@H](C(=O)N[C@@H](Cc1ccc(O)cc1)C(N)=O)[C@@H](C)O)C(C)C)[C@@H](C)O, also called compound 95) | 651 pM | 21500 pM | 33 |  |  |
| K([AEEA-AEEA-γGlu-C20 diacid])CNTATCATQRLANFLRHSSPNFGAIPSSTPVGSNTY-NH2 (disulfide 2-7; N-terminus assumed; SMILES CC[C@H](C)[C@H](NC(=O)[C@H](C)NC(=O)CNC(=O)[C@H](Cc1ccccc1)NC(=O)[C@H](CC(N)=O)NC(=O)[C@@H]1CCCN1C(=O)[C@H](CO)NC(=O)[C@H](CO)NC(=O)[C@H](Cc1c[nH]cn1)NC(=O)[C@H](CCCNC(=N)N)NC(=O)[C@H](CC(C)C)NC(=O)[C@H](Cc1ccccc1)NC(=O)[C@H](CC(N)=O)NC(=O)[C@H](C)NC(=O)[C@H](CC(C)C)NC(=O)[C@H](CCCNC(=N)N)NC(=O)[C@H](CCC(N)=O)NC(=O)[C@@H](NC(=O)[C@H](C)NC(=O)[C@@H]1CSSC[C@H](NC(=O)[C@@H](N)CCCCNC(=O)COCCOCCNC(=O)COCCOCCNC(=O)CC[C@H](NC(=O)CCCCCCCCCCCCCCCCCCC(=O)O)C(=O)O)C(=O)N[C@@H](CC(N)=O)C(=O)N[C@@H]([C@@H](C)O)C(=O)N[C@@H](C)C(=O)N[C@@H]([C@@H](C)O)C(=O)N1)[C@@H](C)O)C(=O)N1CCC[C@H]1C(=O)N[C@@H](CO)C(=O)N[C@@H](CO)C(=O)N[C@H](C(=O)N1CCC[C@H]1C(=O)N[C@H](C(=O)NCC(=O)N[C@@H](CO)C(=O)N[C@@H](CC(N)=O)C(=O)N[C@H](C(=O)N[C@@H](Cc1ccc(O)cc1)C(N)=O)[C@@H](C)O)C(C)C)[C@@H](C)O, also called compound 96) | 181 pM | 3800 pM | 21 |  |  |
| K([AEEA-γGlu-C20 diacid])CNTATCATQRLANFLRHSSPNFGAIPSSTNVGSRTY-NH2 (disulfide 2-7; N-terminus assumed; SMILES CC[C@H](C)[C@H](NC(=O)[C@H](C)NC(=O)CNC(=O)[C@H](Cc1ccccc1)NC(=O)[C@H](CC(N)=O)NC(=O)[C@@H]1CCCN1C(=O)[C@H](CO)NC(=O)[C@H](CO)NC(=O)[C@H](Cc1c[nH]cn1)NC(=O)[C@H](CCCNC(=N)N)NC(=O)[C@H](CC(C)C)NC(=O)[C@H](Cc1ccccc1)NC(=O)[C@H](CC(N)=O)NC(=O)[C@H](C)NC(=O)[C@H](CC(C)C)NC(=O)[C@H](CCCNC(=N)N)NC(=O)[C@H](CCC(N)=O)NC(=O)[C@@H](NC(=O)[C@H](C)NC(=O)[C@@H]1CSSC[C@H](NC(=O)[C@@H](N)CCCCNC(=O)COCCOCCNC(=O)CC[C@H](NC(=O)CCCCCCCCCCCCCCCCCCC(=O)O)C(=O)O)C(=O)N[C@@H](CC(N)=O)C(=O)N[C@@H]([C@@H](C)O)C(=O)N[C@@H](C)C(=O)N[C@@H]([C@@H](C)O)C(=O)N1)[C@@H](C)O)C(=O)N1CCC[C@H]1C(=O)N[C@@H](CO)C(=O)N[C@@H](CO)C(=O)N[C@H](C(=O)N[C@@H](CC(N)=O)C(=O)N[C@H](C(=O)NCC(=O)N[C@@H](CO)C(=O)N[C@@H](CCCNC(=N)N)C(=O)N[C@H](C(=O)N[C@@H](Cc1ccc(O)cc1)C(N)=O)[C@@H](C)O)C(C)C)[C@@H](C)O, Acylated analogue of human amylin; also called compound 38) |  |  |  | 0.383 nM | 38 nM |
| K([γGlu-γGlu-C20 diacid])CNTATCATQRLADFLRHSSPNFGAIPSSTNVGSRTY-NH2 (disulfide 2-7; N-terminus assumed; SMILES CC[C@H](C)[C@H](NC(=O)[C@H](C)NC(=O)CNC(=O)[C@H](Cc1ccccc1)NC(=O)[C@H](CC(N)=O)NC(=O)[C@@H]1CCCN1C(=O)[C@H](CO)NC(=O)[C@H](CO)NC(=O)[C@H](Cc1c[nH]cn1)NC(=O)[C@H](CCCNC(=N)N)NC(=O)[C@H](CC(C)C)NC(=O)[C@H](Cc1ccccc1)NC(=O)[C@H](CC(=O)O)NC(=O)[C@H](C)NC(=O)[C@H](CC(C)C)NC(=O)[C@H](CCCNC(=N)N)NC(=O)[C@H](CCC(N)=O)NC(=O)[C@@H](NC(=O)[C@H](C)NC(=O)[C@@H]1CSSC[C@H](NC(=O)[C@@H](N)CCCCNC(=O)CC[C@H](NC(=O)CC[C@H](NC(=O)CCCCCCCCCCCCCCCCCCC(=O)O)C(=O)O)C(=O)O)C(=O)N[C@@H](CC(N)=O)C(=O)N[C@@H]([C@@H](C)O)C(=O)N[C@@H](C)C(=O)N[C@@H]([C@@H](C)O)C(=O)N1)[C@@H](C)O)C(=O)N1CCC[C@H]1C(=O)N[C@@H](CO)C(=O)N[C@@H](CO)C(=O)N[C@H](C(=O)N[C@@H](CC(N)=O)C(=O)N[C@H](C(=O)NCC(=O)N[C@@H](CO)C(=O)N[C@@H](CCCNC(=N)N)C(=O)N[C@H](C(=O)N[C@@H](Cc1ccc(O)cc1)C(N)=O)[C@@H](C)O)C(C)C)[C@@H](C)O, Acylated analogue of human amylin; also called compound 52) |  |  |  | 0.335 nM | 159 nM |
